Data on one substance can be found in patent publication US7105638B1.

For the assay, the target named is Example III polypeptide 2 (modified truncated TRP-LE - Asp-Leu hinge - Glu - salmon calcitonin Asp 15 analog) (salmon) (UniProt P01263).

Where only a bound is given, the exact number is not on record here.

As to “S. aureus V-8 protease (from UniProt P0C1U8) (enzyme)”, the completeness of cleavage at the Glu residue amino terminal to calcitonin is greater than 95%.
